The RNAGym collection of RNA variant scans (doi:10.1021/acssynbio.7b00057)

B1: Pistol ribozyme (parent)
chain: GGGUCGUUGUUCCAUAAUCGCGUGGAUAUGGCACGCAAGUUUCUACCGGGCACCGUAAAUGUCCGACUGGAGCCGUUCGGGCGGCUAUAAACAGACCUCAGGCCCGAAGCGUGGCGGCACCUGCCGCCGGUGGUAAAAAAGAUCGGAAGAGCACACGUCU

Variants of: B1
Test: aptazyme ON/OFF ratio, guanine; higher = stronger switching; co-transcriptional cleavage with and without guanine

Row | Variant | aptazyme ON/OFF ratio
1 | U7G C12G C13U | 1.17
2 | U7G C12G C13A | 1.08
3 | U7G G9A U10G U11G C12U C13A | 1.09
4 | U7G G9A U10G U11G C12U C13G | 1.12
5 | U7G G9A U10G U11G C12U C13U | 1.1
6 | U7G C12A C13A | 1.22
7 | U7G C12A C13G | 1.11
8 | U7G C12A C13U | 1.21
9 | U7G G9C U10A U11A C12G | 1.7
10 | U7G G9C U10A U11A C12A | 1.46
11 | U7G G9A U10G C12A C13U | 1.08
12 | U7G G9A U10G C12A C13G | 1.15
13 | U7G G9A U10G C12A C13A | 1.08
14 | U7G G9C | 2.85
15 | U7G G9A | 4.35
16 | U7G G9A U10G U11A | 1.05
17 | U7G G9A U10G U11G | 1.09
18 | U7G G9A U10G U11C | 1.04
19 | U7G G9A U10A U11C C13U | 1.06
20 | U7G G9A U10A U11C C13G | 1.08
21 | U7G G9A U10A U11C C13A | 1.09

Row | Variant | aptazyme ON/OFF ratio
22 | U7G G9A U10G U11G C13G | 1.09
23 | U7G G9A U10G U11G C13U | 1.14
24 | U7G G9A U10G U11G C13A | 1.05
25 | U7G G9C U10A U11A C12A C13U | 1.29
26 | U7G G9C U10A U11A C12A C13G | 1.15
27 | U7G G9C U10A U11A C12A C13A | 1.36
28 | U7G G9A U10G U11C C12G C13G | 1.08
29 | U7G G9A U10G U11C C12G C13A | 1.08
30 | U7G G9A U10G U11C C12G C13U | 1.1
31 | U7G G9C U10A C12U C13A | 1.09
32 | U7G G9C U10A C12U C13G | 1.05
33 | U7G G9C U10A C12U C13U | 1.07
34 | U7G G9A U10C | 3.35
35 | U7G G9A U10G | 1.19
36 | U7G G9A U10A | 3.3
37 | U7G G9A U11A C12U C13G | 1.17
38 | U7G G9A U11A C12U C13A | 1.16
39 | U7G G9A U11A C12U C13U | 1.19
40 | U7G G9A U10C U11A C12U C13G | 1.05
41 | U7G G9A U10C U11A C12U C13U | 1.04
42 | U7G G9A U10C U11A C12U C13A | 1.11

Row | Variant | aptazyme ON/OFF ratio
43 | U7G G9A U11G C13A | 1.11
44 | U7G G9A U11G C13U | 1.16
45 | U7G G9A U11G C13G | 1.1
46 | U7C U11G | 1.2
47 | U7G G9A U10C C12G C13U | 1.27
48 | U7G G9A U10C C12G C13G | 1.19
49 | U7G G9A U10C C12G C13A | 1.09
50 | U7G C12U C13U | 1.36
51 | U7G C12U C13G | 1.21
52 | U7G C12U C13A | 1.21
53 | U7G G9A U10G U11A C13U | 1.07
54 | U7G G9A U10G U11A C13G | 1.06
55 | U7G G9A U10G U11A C13A | 1.05
56 | U7G G9C C12U | 1.79
57 | U7G G9C C12G | 1.91
58 | U7G G9C C12A | 1.99
59 | U7G G9A U10C U11G C12U | 1.19
60 | U7G G9A U10C U11G C12G | 1.15
61 | U7G G9A U10C U11G C12A | 1.09
62 | U7G G9A U10G C12A | 1.09
63 | U7G G9A U10G C12U | 1.14

Row | Variant | aptazyme ON/OFF ratio
64 | U7G G9A U10G C12G | 1.09
65 | U7G G9A U10C C13U | 1.44
66 | U7G G9A U10C C13G | 1.08
67 | U7G G9A U10C C13A | 1.11
68 | U7G G9A U10G U11C C12U C13G | 1.08
69 | U7G G9A U10G U11C C12U C13A | 1.08
70 | U7G G9A U10G U11C C12U C13U | 1.09
71 | U7G C12A | 1.14
72 | U7G C12U | 1.39
73 | U7G C12G | 1.25
74 | U7G G9C U10A C12G | 1.4
75 | U7G G9C U10A C12A | 1.43
76 | U7G G9C U10A C12U | 1.18
77 | U7C U11C C12G C13U | 1.22
78 | U7G G9C C12A C13A | 1.42
79 | U7G G9C C12A C13G | 1.33
80 | U7G G9C C12A C13U | 1.34
81 | U7G G9A U10G U11C C12A | 1.12
82 | U7G G9A U10G U11C C12G | 1.1
83 | U7G G9A U10G U11C C12U | 1.11
84 | U7G G9A U10C C12U C13A | 1.18
